In patent publication US20170173107A1 (University of Pennsylvania, published 2017):
Positions of bridges follow the written chain, without caps; N, C: chain ends. Non-standard residues stand in square brackets, D forms with d. *: point of attachment. ABM1 = 3-(naphthalene-2-sulfonamido)propanoic acid albumin-binding tag, amide-linked to N-terminus, O=C(CCNS(=O)(=O)c1ccc2ccccc2c1)*; ABM2 = diphenyl-cyclohexanol phosphate ester hexanoic acid tag; Trp(1-Me) = Cn1cc(C[C@H](N)C(=O)O)c2ccccc21; NMeI = CC[C@H](C)[C@H](NC)C(=O)O; Sar = CNCC(=O)O

B1: ABM2-Cp20 (ABM2-Ile-[Cys-Val-Trp(Me)-Gln-Asp-Trp-Sar-Ala-His-Arg-Cys]-mIle-NH2) (peptide)
peptide: ABM2-ICVWQDW[Sar]AHRC[NMeI]-NH2
modifications: disulfide 2-12; not fully specified (residue 4); printed as ABM2-Ile-[Cys-Val-Trp(Me)-Gln-Asp-Trp-Sar-Ala-His-Arg-Cys]-mIle-NH2
notes: also called ABM2-Compstatin 20
B2: Cp20 (Ac-Ile-[Cys-Val-Trp(Me)-Gln-Asp-Trp-Sar-Ala-His-Arg-Cys]-mIle-NH2) (peptide)
peptide: Ac-ICV[Trp(1-Me)]QDW[Sar]AHRC[NMeI]-NH2
modifications: disulfide 2-12
SMILES: CC[C@H](C)[C@H](NC(C)=O)C(=O)N[C@H]1CSSC[C@@H](C(=O)N(C)[C@H](C(N)=O)[C@@H](C)CC)NC(=O)[C@H](CCCNC(=N)N)NC(=O)[C@H](Cc2c[nH]cn2)NC(=O)[C@H](C)NC(=O)CN(C)C(=O)[C@H](Cc2c[nH]c3ccccc23)NC(=O)[C@H](CC(=O)O)NC(=O)[C@H](CCC(N)=O)NC(=O)[C@H](Cc2cn(C)c3ccccc23)NC(=O)[C@H](C(C)C)NC1=O
notes: Synthetic cyclic 13-residue peptide; also called compstatin analog Cp20; C20
B3: ABM1-Cp20 (peptide)
peptide: ABM1-ICV[Trp(1-Me)]QDW[Sar]AHRC[NMeI]-NH2
modifications: disulfide 2-12
SMILES: CC[C@H](C)[C@H](NC(=O)CCNS(=O)(=O)c1ccc2ccccc2c1)C(=O)N[C@H]1CSSC[C@@H](C(=O)N(C)[C@H](C(N)=O)[C@@H](C)CC)NC(=O)[C@H](CCCNC(=N)N)NC(=O)[C@H](Cc2c[nH]cn2)NC(=O)[C@H](C)NC(=O)CN(C)C(=O)[C@H](Cc2c[nH]c3ccccc23)NC(=O)[C@H](CC(=O)O)NC(=O)[C@H](CCC(N)=O)NC(=O)[C@H](Cc2cn(C)c3ccccc23)NC(=O)[C@H](C(C)C)NC1=O
notes: also called ABMT-Cp20 (misprint of ABM1 in the text)
B4: ABM2-Cp20-miniPEG-Lys(biotin) (peptide)
peptide: ICVWQDWGAHRCIK
modifications: not fully specified; ABM2 amide-linked to the N-terminus; Trp(Me) at position 4; Sar at position 8; mIle at position 13; disulfide Cys2-Cys12; miniPEG (AEEEA) spacer between mIle13 and the C-terminal Lys; biotin on the Lys side chain; made on Rink amide resin (C-terminal amide)
notes: Captured on streptavidin-coated CM5 chip at about 100 RU; also called biotinylated ABM2-Cp20; immobilized ABM2-Cp20

Experiments:
complement component C3 = complement component C3 (human, UniProt P01024 672-1663); test: cell-based or functional assay
Sequence of complement component C3 (P01024 23-665 P314L limits assumed, chain 1 of 2): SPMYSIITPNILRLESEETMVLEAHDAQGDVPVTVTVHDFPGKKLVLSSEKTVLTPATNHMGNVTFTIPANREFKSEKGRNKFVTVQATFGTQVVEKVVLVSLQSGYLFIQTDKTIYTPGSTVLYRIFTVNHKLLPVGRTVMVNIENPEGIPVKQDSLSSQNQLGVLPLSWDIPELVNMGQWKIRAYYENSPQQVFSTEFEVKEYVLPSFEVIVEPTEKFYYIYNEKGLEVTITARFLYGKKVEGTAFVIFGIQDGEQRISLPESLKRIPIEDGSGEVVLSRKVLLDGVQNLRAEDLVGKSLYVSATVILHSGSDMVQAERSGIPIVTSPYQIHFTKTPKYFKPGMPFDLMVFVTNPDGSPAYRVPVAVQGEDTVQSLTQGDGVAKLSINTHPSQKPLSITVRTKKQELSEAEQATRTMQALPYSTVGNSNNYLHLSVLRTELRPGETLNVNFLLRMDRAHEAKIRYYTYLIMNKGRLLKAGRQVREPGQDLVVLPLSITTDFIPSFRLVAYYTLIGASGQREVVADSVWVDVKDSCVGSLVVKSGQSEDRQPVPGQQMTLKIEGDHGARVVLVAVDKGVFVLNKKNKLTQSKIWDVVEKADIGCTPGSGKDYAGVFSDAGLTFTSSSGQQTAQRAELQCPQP
Sequence of complement component C3 (P01024 672-1663 limits assumed, chain 2 of 2): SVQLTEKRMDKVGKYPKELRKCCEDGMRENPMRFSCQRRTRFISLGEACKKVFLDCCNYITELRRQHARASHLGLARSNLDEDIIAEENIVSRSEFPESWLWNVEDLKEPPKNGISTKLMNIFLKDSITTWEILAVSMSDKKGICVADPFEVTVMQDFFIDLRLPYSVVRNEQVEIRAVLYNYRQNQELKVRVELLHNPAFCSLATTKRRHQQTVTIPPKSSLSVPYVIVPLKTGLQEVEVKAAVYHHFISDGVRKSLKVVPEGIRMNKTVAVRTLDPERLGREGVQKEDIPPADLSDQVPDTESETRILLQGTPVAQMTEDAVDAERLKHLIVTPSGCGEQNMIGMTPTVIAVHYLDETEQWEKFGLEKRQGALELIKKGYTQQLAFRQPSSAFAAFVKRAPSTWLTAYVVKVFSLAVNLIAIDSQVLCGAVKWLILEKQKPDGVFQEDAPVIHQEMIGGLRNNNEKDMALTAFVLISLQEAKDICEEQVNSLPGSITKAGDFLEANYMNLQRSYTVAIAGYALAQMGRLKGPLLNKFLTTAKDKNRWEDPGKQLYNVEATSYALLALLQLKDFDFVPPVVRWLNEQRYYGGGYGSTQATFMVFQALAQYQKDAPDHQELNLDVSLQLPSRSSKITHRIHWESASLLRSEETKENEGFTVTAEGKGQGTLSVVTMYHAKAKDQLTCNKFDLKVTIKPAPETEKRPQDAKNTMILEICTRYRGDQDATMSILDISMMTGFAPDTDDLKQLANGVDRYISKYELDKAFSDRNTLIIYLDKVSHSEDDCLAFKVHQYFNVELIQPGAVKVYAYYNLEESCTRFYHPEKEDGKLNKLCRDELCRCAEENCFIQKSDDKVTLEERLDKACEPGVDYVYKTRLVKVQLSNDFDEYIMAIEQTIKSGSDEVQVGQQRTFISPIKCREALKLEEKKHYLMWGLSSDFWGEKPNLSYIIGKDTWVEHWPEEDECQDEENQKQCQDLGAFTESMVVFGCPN

[1] = target: T1, C3b (biotinylated, captured on a streptavidin sensor chip) (UniProt P01024 749-1663, biotinylated (site not stated)); test: SPR (Biacore 3000), single-cycle kinetics, peptide over captured biotinylated C3b, 1:1 model, 25 °C
T1 construct: range 727-1641; also called site-specifically immobilized C3b
T1 sequence (P01024 23-665 P314L limits assumed, chain 1 of 2): as the sequence (P01024 23-665 P314L limits assumed, chain 1 of 2) above
T1 sequence (P01024 749-1663 limits assumed, chain 2 of 2): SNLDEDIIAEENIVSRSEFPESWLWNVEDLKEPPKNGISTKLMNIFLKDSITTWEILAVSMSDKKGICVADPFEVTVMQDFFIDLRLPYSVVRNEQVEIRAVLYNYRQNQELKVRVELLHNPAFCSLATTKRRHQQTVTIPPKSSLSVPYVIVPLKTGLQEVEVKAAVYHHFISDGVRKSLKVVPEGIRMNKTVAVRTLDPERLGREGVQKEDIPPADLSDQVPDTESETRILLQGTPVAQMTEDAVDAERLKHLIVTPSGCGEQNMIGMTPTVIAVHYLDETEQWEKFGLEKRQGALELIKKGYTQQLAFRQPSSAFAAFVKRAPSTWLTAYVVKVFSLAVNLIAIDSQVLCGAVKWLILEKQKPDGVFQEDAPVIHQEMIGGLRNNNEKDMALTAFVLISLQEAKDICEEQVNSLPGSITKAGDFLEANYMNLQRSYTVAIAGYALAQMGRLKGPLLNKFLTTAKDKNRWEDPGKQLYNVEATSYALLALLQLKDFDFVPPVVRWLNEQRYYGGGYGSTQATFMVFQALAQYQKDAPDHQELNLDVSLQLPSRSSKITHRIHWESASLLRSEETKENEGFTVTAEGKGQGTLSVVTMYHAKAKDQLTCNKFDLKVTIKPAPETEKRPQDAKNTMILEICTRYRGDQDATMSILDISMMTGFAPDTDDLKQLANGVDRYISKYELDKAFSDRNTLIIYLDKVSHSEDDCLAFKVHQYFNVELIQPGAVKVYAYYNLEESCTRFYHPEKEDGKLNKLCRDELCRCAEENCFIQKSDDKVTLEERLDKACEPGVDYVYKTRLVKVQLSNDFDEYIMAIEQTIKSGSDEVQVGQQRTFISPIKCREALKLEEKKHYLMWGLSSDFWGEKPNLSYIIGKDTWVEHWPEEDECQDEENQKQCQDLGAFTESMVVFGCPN
Experimental: 1.1 Interaction of Compstatin analogues with C3b. […] Individual injections within a cycle were 2 min long with a 5-min dissociation between injections. After the end of the last injection, a 40-min dissociation time was allowed. […] The kinetic evaluation was performed in BiaEvaluation using a single cycle kinetic template (kindly provided by GE Healthcare) by globally fitting each data set to a 1:1 Langmuir binding model to achieve association and dissociation rates (kₐ and kd, respectively); the equilibrium dissociation constant (KD) was calculated from the equation KD=kd/kₐ (FIG. 1). Each assay was performed at least twice.
^aSingle-cycle kinetic analysis of compstatin conjugates was performed. Sets of five increasing concentrations were consecutively injected over a C3b surface (3000-5000 RU density) in a single cycle. The processed signals were fitted to a 1:1 binding model.

baboon albumin = baboon albumin (baboon); test: SPR, albumin (6.3-100 µM) over immobilized biotinylated ABM2-Cp20; apparent affinity (KD app) from steady state, single-binding-site model
Source text: 1.2 Interaction of ABM-Compstatin conjugates with albumin.
To confirm the albumin-directed activity of the ABM-compstatin conjugates and further explore their simultaneous binding to C3 and albumin, we performed additional SPR binding studies. […] The biotinylated peptides were immobilized on a streptavidin-coated SPR sensor chip, and the interactions with albumins from different species (human, baboon, bovine, rabbit and mouse) were characterized (Table 3; FIG. 2).

Binder | IC50 (µM), inhibition of immune complex-induced (classical pathway) complement activation in human plasma, ELISA (complement component C3) | Kd [1] | koff [1] | kon [1] | Kd (baboon albumin)
B1 | 0.17 µM |  |  |  | 
B2 | 0.26 µM | 2.9 nM | 0.0067 s⁻¹ | 2.3e+06 M⁻¹ s⁻¹ | 
B3 | 0.2 µM |  |  |  | 
B4 |  |  |  |  | 106000 nM
